Reference: the DeepSol protein solubility set

assay: soluble on expression in E. coli; label from the status in PepcDB or PDB records

Sequence	soluble on expression in E. coli
MSLPISLTDFFPIQGGMATRMVIEGANFGTDLSQIKVFFNQKEASILNVKNSIIYLLVPKLPGNDCIVTVKVGNQEARFTRNFQYIENYSVTTIAGQPGTNLFVEGTLAAAQFGPVQHLAIDDENNLFITERNGSDGKGTCSVLNEESGTVTFLFKASDNLNVPTVNAQTQNVYIPLDGGYTFYELNPVNQWIAKSRLVLHPSKEQQEAGMDDFEINWKHSLAFSRYDNMIYTRSYGGDLIKVDPETRVGQKIGNFFPNTDSFIVAHPTQPEILYIAYAAKHVIYTYNIETGEHKLFAGAFGQSGWNDGIATDAEFNSPRQMSLDMEGNIYIADSGNHCIRMIDKNGIVTTPIGQPGEAGYADGSPDMALLNDPRGVAVNSEGDVYIADLGNRCIRKLTLQLEHHHHHH	soluble
MTSRKAKESAHMSASDIISTFNDFFTNFPANKSFDMTYKVYLKDLADADEELTSSRRNSELNLTENKPITIASCGFVPQMMSSSTVKNLSLSSSATNFNSEKSEIGSKITMNPAKQVLKGRNTRKKRSMVDLSQINKIFGRDYNPPAPSSKSPPTIYVNLGVIYSSSSSHASDASSISSHTSVSSTFTEKQHEFGKLVPSGTDGSLELFVKVADCFD	not soluble
MHRYPRPVSPPVYGPYGSGGHYNPYFHYGVSSFPSAPVHWPHLPSGHAAPPSYPMPYPKPGPLLPPPRPSFLAQFKNSDGTYDINKMMSTVGQMINTVNQVNGVLKGLLGTFKK	not soluble
MKFTVGNGQNQHKGVNDGFSYEIWLDNTGGNGSMTLGSGATFKAEWNAAVNRGNFLARRGLDFGSQKKATDYDYIGLDYAATYKQTASASGNSRLCVYGWFQNRGLNGVPLVEYYIIEDWVDWVPDAQGKMVTIDGAQYKIFQMDHTGPTINGGSETFKQYFSVRQQKRTSGHITVSDHFKEWAKQGWGIGNLYEVALNAEGWQSSGVADVTLLDVYTTPKGSSPALEHHHHHH	soluble
MGSDKIHHHHHHMESENQEYQNEADLLSKQEEWCDEEFQEEDSFDIKEYDITTSPNDFNTKTMFDFIESGAVKIPGFQRNYVWDIKRASKLIESIIIGLPVPQIFLYEEARNRFLVIDGQQRLMSIYYFVKQRFPIYEKRIELRHIFDENGKIPGEVLHNDKYFTKFNLQLPSRLSNQRNKLHSLNYSTLDEYKITFDLRTIRNIIIKQNFPSDDNSSIYEVFNRLNSGGMNLKPQEIRASLYHSDFYTMLYRINALPEWRKIVGVEPDLHMKDIEILLRGFAMLVKGTEYKPSMAKFLNEFSSGCKKLEAQKIQYLEELFHSFLSSCSNLPEKAFYGKITNKFNLSMFESIFFAHCKKSFAQEIFIEDKLDYTQLERLKSDPEFINAIQNRTSSTANVKARLERAVSILAEEV	not soluble
MGSDKIHHHHHHMSKLIETRGLTKKYPGVVALDHVDFDLEPGEVHVLFGENGAGKSTLISMLAGANAPSEGRLLLNGEEVQFESVADAQAKGIYTVFQEFSLIPTLTVAQNIFLGWELRFGPFLDHRAMRARAREMLAELGFDIDPAAIVAQLSRAQQQMVEITKAFHGDLNVLILDEPTASLTDREVDHLFEFVAKLKAQGVGIVYISHRIQEFERIAERVTVLRDGAVIGTVAMAETDEDALVEMMTGRAFDQIYPSITFSPGETLLEVSDLTAPGISGACFQVRRGEVLGVAGLVGSGKSRLFRAVMGLTPVQSGSIRFKGADITNAPTRKIITRGMYYLSPDRKAEGLDLAKNARDNLAVNIISGQRHSGHGPFIPWGAVNARIDQISDHVELHAGYRSKPTSQLSGGNQQKVLFGKCFGQDADLIIFDEPTVGVDMGTRAALYLLIKELAEAGKAIVVISSDLPEAMNIAHRLLVLAHGTITARLSADEMSEDTVLKYFFDETGASQ	not soluble
MLLPEPTTLRHVLIDGTIPQVATDEALIKDFGHPYEYAFNRTPQGYQVRWNTPKGVYILDAVVAAHIDPDDQWYWHQQFAFAIPELAEGPHHSSEELLTAARTLNGNGPAYLVPTEDGHTDVIVATPSFPQLPLAHALTLGLGQARNNNLTDDEIRRAIIAFAAQNDYSVAEDGLILCVRSDNGEQAHVDIARLKVRDLQSTTPQLRLTDVLADATFVAAEHQLLLNGRFPDARATTNDDCSVVTLTTPTGQTLRARALLIATLRGETLQWSWADPAVCDLPGAKAALGVKNFAIDNGLGMLLGQVDAATALSQRLYDAAKPVSRFWTDVRVPLSDGSTAIMLVDASELRLPPPSHAAVFATLHETVPHGRDIRRALSYYGAFRRITIDDVDYRRVRVHAPSAPIQVSMDACGRVCSIV	not soluble
MGSDKIHHHHHHMTMPTNQCPWRMQVHHITQETPDVWTISLICHDYYPYRAGQYALVSVRNSAETLRAYTISSTPGVSEYITLTVRRIDDGVGSQWLTRDVKRGDYLWLSDAMGEFTCDDKAEDKFLLLAAGCGVTPIMSMRRWLAKNRPQADVRVIYNVRTPQDVIFADEWRNYPVTLVAENNVTEGFIAGRLTRELLAGVPDLASRTVMTCGPAPYMDWVEQEVKALGVTRFFKEKFFTPVAEAATSGLKFTKLQPAREFYAPVGTTLLEALESNNVPVVAACRAGVCGCCKTKVVSGEYTVSSTMTLTDAEIAEGYVLACSCHPQGDLVLA	not soluble
MGSRIMHVIIANGIAEKLSIHDKTSFLLGAVAPDAVHSKKEKGTSHFYAGTTKNYTRRIDYDSFFHKYESHINSPFILGYYTHLIADDNWLSGFFLPWLKNRIENDETIAPLYYNDFKLLNAKLLHHYDQEQQLFSLLNQEAHIVDIEEVSKENVLAFRKYLFEDMLYPKQYLHEDLQVFTFDQIVGYIETAIEKGVFFIKQLSNEKSTSKI	not soluble
MSLNASAPIPLNETQRLLRIRELCVLENTSDDVFDEIVAMTADFFQTPIALISIVDEHRQWFRARVGLNAQETPRNVSFCAYTILSDSLFEIPDATLDDRFMNNSLVTGHPDIRYYAGAPLITDDGIALGSLCVIDTKPREPMSEHQMQMLKRFASLVMKRIVSLRLSCFIDQPTGLYNRSRLQEDIHQALLSSVDYQLVVVDMITSAFLNDIVKALGYSFSQDLVTEIKSRLEHLLPPTCSLYKVSPTRFGFLLPGERAPDHLFRTILEDFETPVECRGIPVQMQVGLGVVTLNRDPTEEQDWMRMVISAADDARDRNLGWAMYEPHFDAAQQRAFKLLSSLTSAVHSHDQLRLVYQPRIDLASGLCTSVEALLRWNHPTLGPIGPAEFVPLAEKTALMRPLSLWVLTSAIEQAARWQQQGFDFRIAINVTPEDLTGPAFTDRMIRLLGQHKIDPTRFELEFTEGALMHNPAEVRHQLERMRQMGMDVAIDDFGTGYSNWNYLRQLPATTVKLDQSLIRNLASDKTDQRLVKALIGLAKKLGYCVVAEGIETDEIRRLVKQWGCDEGQGYLISKPMEADAVLNWLGPDRRLQTVTEAAEAAVIRDKRLEGHHHHHH	soluble
MGSDKIHHHHHHMNTNTSITIQKPKTDELLLWNLLFADTGRQVLLVAYDIKLFPLLSQKPCTLAEICNELKIFQRPAEAILAVLASIELLEIENNYYSLTLLAKDYLVKSSPTYFGALLEMMIFDERKHISSFDSLKKSLFTNNYPGKKVMESLVKNHDFMRTITFGNNVKLIRGFISSMHGPSMAAALIWPELIDLSEYKLFIDIGGGSAAHSIGATLKWPNLQAVVLELPTVCEIAQEFITHYGLQNRIATQEFDMWSDTFPVGDLHFYSAVYHHWQQEKCQVITKKSFNSLLPGGRIILHEMLFNEQKTGPFPVAAKNLNISLKLGGQQYSGQELSMMLEQAGFIDIEIKPASSYWSIITGRKP	not soluble
MSLIITRTPLRITFVGGGTDLPDFYTRHGGSVVSAAINRYIYIIVNKKFDSKIRVSYSRTEIVDKVDEIRHPTVREALRLLELDGGIEILSISDVPSQGTGLGSSSSFLVGLLNALHAYKSEYVSNETLAEEAVKIEREILREAGGKQDQYMAAYGGIDLLQFFQNGEVRVKPIPLNTERLKYLRDNTALLYTGVERSSTDIHTDQISKIDDHIQEYLEMKKLAEEFAVKLYASDIKELGEIMDRNWMLKRKLSGKITNDLIDRLYIRAKELGAYGGKLIGAGGGGFLLFFIDHNKRENLKELGLRQMDYDFDFEGSRIIYYQDREGHHHHHH	soluble
